Broadly, the stoichiometry N is a count of units in the complex or per binding partner.

In PMC3141052 one finds stoichiometry N data, which are given here for one substance.

This experiment deals with P domain protein of norovirus VA207 (GII.9), amino acid 222-537 (norovirus VA207 (GII.9)). In words: crystal structure; native P protein (P2(1)2(1)2) and its complexes with Le^y or SLe^x tetrasaccharide (P2(1)2(1)2(1)); hanging drop, PEG 3350, 50 mM magnesium formate.

On to “P domain protein of norovirus VA207 (GII.9), amino acid 222-537 (domain or fragment)”, for which the stoichiometry N was 2.
